Data taken from IntAct's records for PubMed 29106382.

B1: Angiopoietin-1 (Homo sapiens), Q15389 (parent)
chain: MTVFLSFAFLAAILTHIGCSNQRRSPENSGRRYNRIQHGQCAYTFILPEHDGNCRESTTDQYNTNALQRDAPHVEPDFSSQKLQHLEHVMENYTQWLQKLENYIVENMKSEMAQIQQNAVQNHTATMLEIGTSLLSQTAEQTRKLTDVETQVLNQTSRLEIQLLENSLSTYKLEKQLLQQTNEILKIHEKNSLLEHKILEMEGKHKEELDTLKEEKENLQGLVTRQTYIIQELEKQLNRATTNNSVLQKQQLELMDTVHNLVNLCTKEGVLLKGGKREEEKPFRDCADVYQAGFNKSGIYTIYINNMPEPKKVFCNMDVNGGGWTVIQHREDGSLDFQRGWKEYKMGFGNPSGEYWLGNEFIFAITSQRQYMLRIELMDWEGNRAYSQYDRFHIGNEKQNYRLYLKGHTGTAGKQSSLILHGADFSTKDADNDNCMCKCALMLTGGWWFDACGPSNLNGMFYTAGQNHGKLNGIKWHYFKGPSYSLRSTTMMIRPLDF

Variants of: B1
Details: with tie2_human TEK

Variant	effect of a mutation on the interaction
K249R	with no effect
